From patent publication US20170137838
Where two headings read alike, the source gives them in different places.

System: ONAC131 (Os12g03040.1) (Oryza sativa subsp. japonica cv. Nipponbare)
[1] = relative to SO1, SD 0.03, CELD assay
[2] = relative to SO1, SD 0.01, CELD assay
[3] = relative to SO1, SD 0.05, CELD assay

AATCCACCGCCATAAATCTACGTAACAAGTCA (double strand) [Rice chitinase site II]
binding signal (relative to SO1, CELD assay): 0

CACTTGACACGTGGGATCCACGTCACCATCCT (double strand) [Rice glyoxalase I family promoter element]
binding signal [1]: 0.29

GAGATCCGTGCACAGTAAATAACTGTTACA (double strand) [SO1m14]
binding signal (relative to SO1, CELD assay): 0

GAGATCCGTGCACAGTACGTAACTGTTACA (double strand) [SO1 (TaNAC69 high affinity binding site I)]
binding signal (CELD reporter assay on streptavidin plate, reference, SD 0.03, pH 7.0, 50 mM KCl, 2 mM MgCl2): 1

GAGATCTGTGCACAGTACGTAACTGTTACA (double strand) [SO1m28]
binding signal [2]: 0.01

GAGGCCCTTAATGTTTACACGTCTCTAGTG (double strand) [SO39m6]
binding signal [2]: 0.18

GAGGTGTTTAATGTTTACACGTCTCTAGTG (double strand) [SO39 (TaNAC69 high affinity binding site II)]
binding signal [3]: 0.93

GATTTGTCTCGTAATTTACACGTAATCTGTGT (double strand) [Rice ZIM family protein promoter element]
binding signal [3]: 0.43

GCCAGCGTTCTGTTTCTGTACGTCTCTCTGGG (double strand) [Arabidopsis glyoxalase I family 5'-UTR element]
binding signal (relative to SO1, SD 0.03, same sequence as rice chitinase site I): 1.07

GCCAGCGTTCTGTTTCTGTACGTCTCTCTGGG (double strand) [Rice chitinase site I]
binding signal [1]: 1.07

TTCCGTAGTTTACTGGATCACGACACACACAC (double strand) [Rice chitinase site III]
binding signal (relative to SO1, SD 0.02, CELD assay): 0.15
